Measured values taken from paper PMC9798946, “Properties and Activity of Peptide Derivatives of ACE2 Cellular Receptor and Their Interaction with SARS-CoV-2 S Protein Receptor-Binding Domain” (Doklady. Biochemistry and Biophysics, 2022).
Like-named read-outs stand apart in the source and are kept apart here.

Columns and labels:
[1] = Degree of α-helicity by circular dichroism (CD) spectroscopy; assay type: physicochemical
[2] = target: T1, SARS-CoV-2 S protein RBD RBD (Severe acute respiratory syndrome coronavirus 2), P0DTC2; conditions: modification not given
[3] = target: T1, SARS-CoV-2 S protein RBD RBD (Severe …); conditions: modification not given; remark: listed apart in the source
[4] = target: T1, SARS-CoV-2 S protein RBD RBD (Severe …); conditions: modification not given; remark: listed apart in the source
[5] = target: T1, SARS-CoV-2 S protein RBD RBD (Severe …); conditions: modification not given; remark: listed apart in the source
[6] = target: T1, SARS-CoV-2 S protein RBD RBD (Severe …); conditions: modification not given; remark: listed apart in the source

In the case of CC[C@H](C)[C@H](N)C(=O)N[C@@H](CCC(=O)O)C(=O)N[C@@H](CCC(=O)O)C(=O)N[C@@H](CCC(N)=O)C(=O)N[C@@H](C)C(=O)N[C@@H](CCCCN)C(=O)N[C@H](C(=O)N[C@@H](Cc1ccccc1)C(=O)N[C@@H](CC(C)C)C(=O)N[C@@H](CC(=O)O)C(=O)N[C@@H](CCCCNC(=O)CCS)C(=O)N[C@@H](Cc1ccccc1)C(=O)N[C@@H](CC(N)=O)C(=O)N[C@@H](Cc1c[nH]cn1)C(=O)N[C@@H](CCC(N)=O)C(=O)N[C@@H](C)C(=O)N[C@@H](CCC(=O)O)C(=O)N[C@@H](CC(=O)O)C(=O)N[C@@H](CC(C)C)C(=O)N[C@@H](Cc1ccccc1)C(=O)N[C@@H](Cc1ccc(O)cc1)C(=O)N[C@H](CCCCN)C(=O)O)[C@@H](C)O [h1–Mpa], the “α-Helicity, H2O” value ([1]; solvent H2O) is reported as 6.0%, the “α-Helicity, TFE” value ([1]; solvent trifluoroethanol (TFE)) is reported as 85.3% and the “α-Helicity, WEM” value ([1]; solvent water–ethanol mixture (WEM)) is reported as 37.8%.

IEEQAKTFLDKFNHQAEDLFYK [h1-Mpa (21-42)] gave a Kd [2] of 1070 nM.

DKWSAFLKEQSTIAQMYPLQECI [h2 (67-89)] showed a Kd [3] of 40000 nM and a Kd [4] of 2580 nM.

NCGDKWSAFLKEQSTLAQMYPLQE [900h2 (64-87)] showed a Kd [5] of 1700 nM and a Kd [6] of 7220 nM.
